Data on one molecule can be found in patent US5609876, “Peptide vaccines and associated methods for protection against feline leukemia virus” (University of Pittsburgh of the Commonwealth System of …, dated 1997).

This assay addresses T1, PRN4358 (feline leukemia virus (FeLV 61-E gp70)).
T1 peptide: VAPTTVGPKRIGTGDR-NH2
The assay can be described thus: 1H-NMR of an equimolar (5 mM) mixture of PRN42 and PRN4358, amide proton protection in D2O.

No end group written: not given here.

Consider TPPQAMGPNLVLPDQKPPSRQSQTGSKVATQRPQTNESAPRS-NH2 [PRN42], for which the binding result was “binds”.
